# Starred links: 1 amine or outer side, 2 acyl side, 3 side chain; linkers in the order of their positions; H or OH if unused. Non-standard residues stand in square brackets, D forms with d. Groups on a side chain read outwards from the residue. No end group written: not given here. *: point of attachment. C20 diacid = O=C(O)CCCCCCCCCCCCCCCCCCC(=O)*; C18 diacid = O=C(O)CCCCCCCCCCCCCCCCC(=O)*; γGlu = O=C(O)[C@H](CCC(=O)[*:2])N[*:1]; αMeF = C[C@](N)(Cc1ccccc1)C(=O)O; AEEA = NCCOCCOCC(=O)O; Aib = CC(C)(N)C(=O)O
# B1: Peptide 480 (peptide)
# peptide: H[Aib]QGTFTSDVSK[αMeF]LDTK([AEEA-AEEA-γGlu-C18 diacid])RARDFVQWLLE[Aib]K-NH2
# modifications: N-terminus assumed
# SMILES: CC(C)C[C@H](NC(=O)[C@H](Cc1c[nH]c2ccccc12)NC(=O)[C@H](CCC(N)=O)NC(=O)[C@@H](NC(=O)[C@H](Cc1ccccc1)NC(=O)[C@H](CC(=O)O)NC(=O)[C@H](CCCNC(=N)N)NC(=O)[C@H](C)NC(=O)[C@H](CCCNC(=N)N)NC(=O)[C@H](CCCCNC(=O)COCCOCCNC(=O)COCCOCCNC(=O)CC[C@H](NC(=O)CCCCCCCCCCCCCCCCC(=O)O)C(=O)O)NC(=O)[C@@H](NC(=O)[C@H](CC(=O)O)NC(=O)[C@H](CC(C)C)NC(=O)[C@](C)(Cc1ccccc1)NC(=O)[C@H](CCCCN)NC(=O)[C@H](CO)NC(=O)[C@@H](NC(=O)[C@H](CC(=O)O)NC(=O)[C@H](CO)NC(=O)[C@@H](NC(=O)[C@H](Cc1ccccc1)NC(=O)[C@@H](NC(=O)CNC(=O)[C@H](CCC(N)=O)NC(=O)C(C)(C)NC(=O)[C@@H](N)Cc1c[nH]cn1)[C@@H](C)O)[C@@H](C)O)C(C)C)[C@@H](C)O)C(C)C)C(=O)N[C@@H](CC(C)C)C(=O)N[C@@H](CCC(=O)O)C(=O)NC(C)(C)C(=O)N[C@@H](CCCCN)C(N)=O
# B2: Peptide 479 (peptide)
# peptide: H[Aib]QGTFTSDVSK[αMeF]LDTK([AEEA-AEEA-γGlu-C20 diacid])RAQDFVRWLLE[Aib]K-NH2
# modifications: N-terminus assumed
# SMILES: CC(C)C[C@H](NC(=O)[C@H](Cc1c[nH]c2ccccc12)NC(=O)[C@H](CCCNC(=N)N)NC(=O)[C@@H](NC(=O)[C@H](Cc1ccccc1)NC(=O)[C@H](CC(=O)O)NC(=O)[C@H](CCC(N)=O)NC(=O)[C@H](C)NC(=O)[C@H](CCCNC(=N)N)NC(=O)[C@H](CCCCNC(=O)COCCOCCNC(=O)COCCOCCNC(=O)CC[C@H](NC(=O)CCCCCCCCCCCCCCCCCCC(=O)O)C(=O)O)NC(=O)[C@@H](NC(=O)[C@H](CC(=O)O)NC(=O)[C@H](CC(C)C)NC(=O)[C@](C)(Cc1ccccc1)NC(=O)[C@H](CCCCN)NC(=O)[C@H](CO)NC(=O)[C@@H](NC(=O)[C@H](CC(=O)O)NC(=O)[C@H](CO)NC(=O)[C@@H](NC(=O)[C@H](Cc1ccccc1)NC(=O)[C@@H](NC(=O)CNC(=O)[C@H](CCC(N)=O)NC(=O)C(C)(C)NC(=O)[C@@H](N)Cc1c[nH]cn1)[C@@H](C)O)[C@@H](C)O)C(C)C)[C@@H](C)O)C(C)C)C(=O)N[C@@H](CC(C)C)C(=O)N[C@@H](CCC(=O)O)C(=O)NC(C)(C)C(=O)N[C@@H](CCCCN)C(N)=O
# B3: Peptide 483 (peptide)
# peptide: H[Aib]QGTFTSDVSK[αMeF]LDTK([AEEA-AEEA-γGlu-C18 diacid])RAQDFVQWLL[Aib]E-OH
# B4: Peptide 481 (peptide)
# peptide: H[Aib]QGTFTSDVSK[αMeF]LDTK([AEEA-AEEA-γGlu-C20 diacid])RARDFVQWLLE[Aib]K-NH2
# modifications: N-terminus assumed
# SMILES: CC(C)C[C@H](NC(=O)[C@H](Cc1c[nH]c2ccccc12)NC(=O)[C@H](CCC(N)=O)NC(=O)[C@@H](NC(=O)[C@H](Cc1ccccc1)NC(=O)[C@H](CC(=O)O)NC(=O)[C@H](CCCNC(=N)N)NC(=O)[C@H](C)NC(=O)[C@H](CCCNC(=N)N)NC(=O)[C@H](CCCCNC(=O)COCCOCCNC(=O)COCCOCCNC(=O)CC[C@H](NC(=O)CCCCCCCCCCCCCCCCCCC(=O)O)C(=O)O)NC(=O)[C@@H](NC(=O)[C@H](CC(=O)O)NC(=O)[C@H](CC(C)C)NC(=O)[C@](C)(Cc1ccccc1)NC(=O)[C@H](CCCCN)NC(=O)[C@H](CO)NC(=O)[C@@H](NC(=O)[C@H](CC(=O)O)NC(=O)[C@H](CO)NC(=O)[C@@H](NC(=O)[C@H](Cc1ccccc1)NC(=O)[C@@H](NC(=O)CNC(=O)[C@H](CCC(N)=O)NC(=O)C(C)(C)NC(=O)[C@@H](N)Cc1c[nH]cn1)[C@@H](C)O)[C@@H](C)O)C(C)C)[C@@H](C)O)C(C)C)C(=O)N[C@@H](CC(C)C)C(=O)N[C@@H](CCC(=O)O)C(=O)NC(C)(C)C(=O)N[C@@H](CCCCN)C(N)=O
# B5: Peptide 484 (peptide)
# peptide: H[Aib]QGTFTSDVSK[αMeF]LDTK([AEEA-AEEA-γGlu-C20 diacid])RAQDFVQWLL[Aib]E-OH
# modifications: N-terminus assumed
# SMILES: CC(C)C[C@H](NC(=O)[C@H](Cc1c[nH]c2ccccc12)NC(=O)[C@H](CCC(N)=O)NC(=O)[C@@H](NC(=O)[C@H](Cc1ccccc1)NC(=O)[C@H](CC(=O)O)NC(=O)[C@H](CCC(N)=O)NC(=O)[C@H](C)NC(=O)[C@H](CCCNC(=N)N)NC(=O)[C@H](CCCCNC(=O)COCCOCCNC(=O)COCCOCCNC(=O)CC[C@H](NC(=O)CCCCCCCCCCCCCCCCCCC(=O)O)C(=O)O)NC(=O)[C@@H](NC(=O)[C@H](CC(=O)O)NC(=O)[C@H](CC(C)C)NC(=O)[C@](C)(Cc1ccccc1)NC(=O)[C@H](CCCCN)NC(=O)[C@H](CO)NC(=O)[C@@H](NC(=O)[C@H](CC(=O)O)NC(=O)[C@H](CO)NC(=O)[C@@H](NC(=O)[C@H](Cc1ccccc1)NC(=O)[C@@H](NC(=O)CNC(=O)[C@H](CCC(N)=O)NC(=O)C(C)(C)NC(=O)[C@@H](N)Cc1c[nH]cn1)[C@@H](C)O)[C@@H](C)O)C(C)C)[C@@H](C)O)C(C)C)C(=O)N[C@@H](CC(C)C)C(=O)NC(C)(C)C(=O)N[C@@H](CCC(=O)O)C(=O)O
# B6: Peptide 478 (peptide)
# peptide: H[Aib]QGTFTSDVSK[αMeF]LDTK([AEEA-AEEA-γGlu-C18 diacid])RAQDFVRWLLE[Aib]K-NH2
# modifications: N-terminus assumed
# SMILES: CC(C)C[C@H](NC(=O)[C@H](Cc1c[nH]c2ccccc12)NC(=O)[C@H](CCCNC(=N)N)NC(=O)[C@@H](NC(=O)[C@H](Cc1ccccc1)NC(=O)[C@H](CC(=O)O)NC(=O)[C@H](CCC(N)=O)NC(=O)[C@H](C)NC(=O)[C@H](CCCNC(=N)N)NC(=O)[C@H](CCCCNC(=O)COCCOCCNC(=O)COCCOCCNC(=O)CC[C@H](NC(=O)CCCCCCCCCCCCCCCCC(=O)O)C(=O)O)NC(=O)[C@@H](NC(=O)[C@H](CC(=O)O)NC(=O)[C@H](CC(C)C)NC(=O)[C@](C)(Cc1ccccc1)NC(=O)[C@H](CCCCN)NC(=O)[C@H](CO)NC(=O)[C@@H](NC(=O)[C@H](CC(=O)O)NC(=O)[C@H](CO)NC(=O)[C@@H](NC(=O)[C@H](Cc1ccccc1)NC(=O)[C@@H](NC(=O)CNC(=O)[C@H](CCC(N)=O)NC(=O)C(C)(C)NC(=O)[C@@H](N)Cc1c[nH]cn1)[C@@H](C)O)[C@@H](C)O)C(C)C)[C@@H](C)O)C(C)C)C(=O)N[C@@H](CC(C)C)C(=O)N[C@@H](CCC(=O)O)C(=O)NC(C)(C)C(=O)N[C@@H](CCCCN)C(N)=O
# B7: Peptide 477 (peptide)
# peptide: H[Aib]QGTFTSDVSK[αMeF]LDTK([AEEA-AEEA-γGlu-C20 diacid])RAQDFVRWLLA[Aib]G-NH2
# modifications: N-terminus assumed
# SMILES: CC(C)C[C@H](NC(=O)[C@H](CC(C)C)NC(=O)[C@H](Cc1c[nH]c2ccccc12)NC(=O)[C@H](CCCNC(=N)N)NC(=O)[C@@H](NC(=O)[C@H](Cc1ccccc1)NC(=O)[C@H](CC(=O)O)NC(=O)[C@H](CCC(N)=O)NC(=O)[C@H](C)NC(=O)[C@H](CCCNC(=N)N)NC(=O)[C@H](CCCCNC(=O)COCCOCCNC(=O)COCCOCCNC(=O)CC[C@H](NC(=O)CCCCCCCCCCCCCCCCCCC(=O)O)C(=O)O)NC(=O)[C@@H](NC(=O)[C@H](CC(=O)O)NC(=O)[C@H](CC(C)C)NC(=O)[C@](C)(Cc1ccccc1)NC(=O)[C@H](CCCCN)NC(=O)[C@H](CO)NC(=O)[C@@H](NC(=O)[C@H](CC(=O)O)NC(=O)[C@H](CO)NC(=O)[C@@H](NC(=O)[C@H](Cc1ccccc1)NC(=O)[C@@H](NC(=O)CNC(=O)[C@H](CCC(N)=O)NC(=O)C(C)(C)NC(=O)[C@@H](N)Cc1c[nH]cn1)[C@@H](C)O)[C@@H](C)O)C(C)C)[C@@H](C)O)C(C)C)C(=O)N[C@@H](C)C(=O)NC(C)(C)C(=O)NCC(N)=O
# B8: Peptide 482 (peptide)
# peptide: H[Aib]QGTFTSDVSK[αMeF]LESK([AEEA-AEEA-γGlu-C18 diacid])RAQDFVQWLL[Aib]E-OH
# modifications: N-terminus assumed
# SMILES: CC(C)C[C@H](NC(=O)[C@H](Cc1c[nH]c2ccccc12)NC(=O)[C@H](CCC(N)=O)NC(=O)[C@@H](NC(=O)[C@H](Cc1ccccc1)NC(=O)[C@H](CC(=O)O)NC(=O)[C@H](CCC(N)=O)NC(=O)[C@H](C)NC(=O)[C@H](CCCNC(=N)N)NC(=O)[C@H](CCCCNC(=O)COCCOCCNC(=O)COCCOCCNC(=O)CC[C@H](NC(=O)CCCCCCCCCCCCCCCCC(=O)O)C(=O)O)NC(=O)[C@H](CO)NC(=O)[C@H](CCC(=O)O)NC(=O)[C@H](CC(C)C)NC(=O)[C@](C)(Cc1ccccc1)NC(=O)[C@H](CCCCN)NC(=O)[C@H](CO)NC(=O)[C@@H](NC(=O)[C@H](CC(=O)O)NC(=O)[C@H](CO)NC(=O)[C@@H](NC(=O)[C@H](Cc1ccccc1)NC(=O)[C@@H](NC(=O)CNC(=O)[C@H](CCC(N)=O)NC(=O)C(C)(C)NC(=O)[C@@H](N)Cc1c[nH]cn1)[C@@H](C)O)[C@@H](C)O)C(C)C)C(C)C)C(=O)N[C@@H](CC(C)C)C(=O)NC(C)(C)C(=O)N[C@@H](CCC(=O)O)C(=O)O
# Target: human GLP-1 receptor (hGLP-1R) (human, UniProt P43220 24-463)
# Assay: cell-based or functional assay
row,hGLP-1R EC50 (pM),Binder
1,12.6,B1
2,34.2,B2
3,178,B3
4,52.2,B4
5,339,B5
6,9.18,B6
7,54.1,B7
8,190,B8

# Target: human glucagon receptor (hGCGR) (human, UniProt P47871 26-477)
# Sequence (P47871 26-477): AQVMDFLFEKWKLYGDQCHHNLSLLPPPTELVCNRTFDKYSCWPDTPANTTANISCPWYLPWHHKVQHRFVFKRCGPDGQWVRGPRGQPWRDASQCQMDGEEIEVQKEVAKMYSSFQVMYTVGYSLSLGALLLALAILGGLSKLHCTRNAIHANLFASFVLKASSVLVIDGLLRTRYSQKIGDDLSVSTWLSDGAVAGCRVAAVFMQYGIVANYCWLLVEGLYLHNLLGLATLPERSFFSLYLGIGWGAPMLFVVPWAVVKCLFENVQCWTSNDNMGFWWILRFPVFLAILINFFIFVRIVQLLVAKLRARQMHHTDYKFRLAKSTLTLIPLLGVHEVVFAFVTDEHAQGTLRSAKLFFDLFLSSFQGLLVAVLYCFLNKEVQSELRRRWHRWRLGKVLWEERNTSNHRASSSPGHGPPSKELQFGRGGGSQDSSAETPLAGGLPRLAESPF
# Assay: cell-based or functional assay
row,hGluc-R EC50 (pM),Binder
1,136,B1
2,207,B2
3,169,B3
4,350,B4
5,169,B5
6,190,B6
7,117,B7
8,691,B8
